The source of these data is IntAct's records for PubMed 16866877.

B1: Brefeldin A-inhibited guanine nucleotide-exchange protein 2 (Homo sapiens), Q9Y6D5 (parent)
chain: MQESQTKSMFVSRALEKILADKEVKRPQHSQLRRACQVALDEIKAEIEKQRLGTAAPPKANFIEADKYFLPFELACQSKSPRVVSTSLDCLQKLIAYGHITGNAPDSGAPGKRLIDRIVETICSCFQGPQTDEGVQLQIIKALLTAVTSPHIEIHEGTILQTVRTCYNIYLASKNLINQTTAKATLTQMLNVIFTRMENQVLQEARELEKPIQSKPQSPVIQAAAVSPKFVRLKHSQAQSKPTTPEKTDLTNGEHARSDSGKVSTENGDAPRERGSSLSGTDDGAQEVVKDILEDVVTSAIKEAAEKHGLTEPERVLGELECQECAIPPGVDENSQTNGIADDRQSLSSADNLESDAQGHQVAARFSHVLQKDAFLVFRSLCKLSMKPLGEGPPDPKSHELRSKVVSLQLLLSVLQNAGPVFRTHEMFINAIKQYLCVALSKNGVSSVPDVFELSLAIFLTLLSNFKMHLKMQIEVFFKEIFLNILETSTSSFEHRWMVIQTLTRICADAQCVVDIYVNYDCDLNAANIFERLVNDLSKIAQGRSGHELGMTPLQELSLRKKGLECLVSILKCMVEWSKDLYVNPNHQTSLGQERLTDQEIGDGKGLDMARRCSVTSMESTVSSGTQTTVQDDPEQFEVIKQQKEIIEHGIELFNKKPKRGIQFLQEQGMLGTSVEDIAQFLHQEERLDSTQVGDFLGDSARFNKEVMYAYVDQLDFCEKEFVSALRTFLEGFRLPGEAQKIDRLMEKFAARYIECNQGQTLFASADTAYVLAYSIIMLTTDLHSPQVKNKMTKEQYIKMNRGINDSKDLPEEYLSSIYEEIEGKKIAMKETKELTIATKSTKQNVASEKQRRLLYNLEMEQMAKTAKALMEAVSHAKAPFTSATHLDHVRPMFKLVWTPLLAAYSIGLQNCDDTEVASLCLEGIRCAIRIACIFGMQLERDAYVQALARFSLLTASSSITEMKQKNIDTIKTLITVAHTDGNYLGNSWHEILKCISQLELAQLIGTGVKTRYLSGSGREREGSLKGHTLAGEEFMGLGLGNLVSGGVDKRQMASFQESVGETSSQSVVVAVDRIFTGSTRLDGNAIVDFVRWLCAVSMDELASPHHPRMFSLQKIVEISYYNMNRIRLQWSRIWHVIGDHFNKVGCNPNEDVAIFAVDSLRQLSMKFLEKGELANFRFQKDFLRPFEHIMKKNRSPTIRDMAIRCIAQMVNSQAANIRSGWKNIFAVFHQAASDHDGNIVELAFQTTCHIVTTIFQHHFPAAIDSFQDAVKCLSEFACNAAFPDTSMEAIRLIRFCGKYVSERPRVLQEYTSDDMNVAPGDRVWVRGWFPILFELSCIINRCKLDVRTRGLTVMFEIMKSYGHTFEKHWWQDLFRIVFRIFDNMKLPEQLSEKSEWMTTTCNHALYAICDVFTQFYEALNEVLLSDVFAQLQWCVKQDNEQLARSGTNCLENLVISNGEKFSPEVWDETCNCMLDIFKTTIPHVLLTWRPVGMEEDSSEKHLDVDLDRQSLSSIDKNPSERGQSQLSNPTDDSWKGRPYANQKLFASLLIKCVVQLELIQTIDNIVFYPATSKKEDAEHMVAAQQDTLDADIHIETEDQGMYKYMSSQHLFKLLDCLQESHSFSKAFNSNYEQRTVLWRAGFKGKSKPNLLKQETSSLACCLRILFRMYVDENRRDSWEEIQQRLLTVCSEALAYFITVNSESHREAWTSLLLLLLTKTLKINDEKFKAHASMYYPYLCEIMQFDLIPELRAVLRKFFLRIGVVYKIWIPEEPSQVPAALSPVW
partner: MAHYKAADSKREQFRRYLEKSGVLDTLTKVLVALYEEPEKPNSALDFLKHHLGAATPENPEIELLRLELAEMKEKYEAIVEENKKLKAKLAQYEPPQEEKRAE

Variants of B1 are the subject of the assay. The settings on record: with mycbp_human MYCBP.
On to I292P, for which the “effect of a mutation on the interaction” value was “decreasing interaction”.
